Data: patent US6887844 (dated 2005)
Positions count from the first letter of the chain named. Names may count otherwise. One block for each molecule: values may come before it.

How the values were obtained:
[1] = target: NCAM Ig2 domain, recombinant, produced in Pichia pastoris (rat) (UniProt P13596); assay: NMR titration, 14 points, 15N-labelled domain-2 (1.0 mM) titrated with unlabelled domain-1, chemical shifts of 10 residues fitted
[2] = target: NCAM on cells (primary hippocampal neurones; NCAM-140 on transfected fibroblasts) (rat) (UniProt P13596); assay: cell-based or functional assay
[3] = target: the molecule itself; assay: gel filtration chromatography, self-association

Kd [1]: 2500 µM
Molecule: NCAM Ig1 domain, recombinant, produced in Pichia pastoris (Ig1 PP) (from UniProt P13596 20-116) (receptor)

concentration of maximal neuritogenic effect, primary hippocampal neurones on fibronectin [2]: 0.54 µM
Molecule: NCAM Ig2 domain, recombinant, produced in Pichia pastoris (from UniProt P13596 117-208) (ligand)

B1: NCAM (20-208) with three mutations in the domain-1 E30A, E35A, K37A (receptor, UniProt P13596 20-208, looked up)
chain: LQVDIVPSQGAISVGASAFFLCQVAGDAKDKDISWFSPNGEKLSPNQQRISVVWNDDDSSTLTIYNANIDDAGIYKCVVTAEDGTQSEATVNVKIFQKLMFKNAPTPQEFKEGEDAVIVCDVVSSLPPTIIWKHKGRDVILKKDVRFIVLSNNYLQIRGIKKTDEGTYRCEGRILARGEINFKDIQVIV
notes: Species as for m28; also called first mutant
binding result [3]: no binding

B2: NCAM (20-208) with three mutations in the domain-2 R192A, R196A, E198A (receptor, UniProt P13596 20-208, looked up)
chain: B1 chain with A11E, A16E, A18K, R173A, R177A, E179A
notes: Species as for m28; also called second mutant; mutated double domain
binding result [3]: no binding

B3: NCAM (20-208) with three mutations in the domain-1 E30A, E35A, K37A and three mutations in the domain-2 R192A, R196A, E198A (receptor, UniProt P13596 20-208, looked up)
chain: B1 chain with R173A, R177A, E179A
notes: Species as for m28; also called third mutant
binding result [3]: no binding
